These results are taken from publication PMC8017934.

Where “and” joins values, the source holds several entries; their conditions need not be identical. Identical values can stand only once. Like-named read-outs stand apart in the source and are kept apart here.

For data set [1], the target named is SARS-CoV-2 NSP1 (ybbR-NSP1) WT;human 40S ribosomal subunit (SARS-CoV-2;Homo sapiens) (UniProt P0DTD1). Briefly: single-molecule fluorescence (ZMW).
Data set [2] deals with human 40S ribosomal subunit;eIF1, eIF1A, eIF5, TC-GMPPNP (eIF2, Met-tRNAi) (Homo sapiens;Homo sapiens). Description: single-molecule fluorescence (ZMW).
Data set [3] has as its target SARS-CoV-2 NSP1 (ybbR-NSP1) WT;human 40S ribosomal subunit;eIF1, eIF1A, eIF5, TC-GMPPNP (eIF2, Met-tRNAi) (SARS-CoV-2;Homo sapiens;Homo sapiens) (UniProt P0DTD1). Description: single-molecule fluorescence (ZMW).
For data set [4], the target named is human 40S ribosomal subunit with the ybbR tag on RACK1, biotinylated or Cy5-labelled (human) (UniProt P63244).
Data set [5] shares this target. This is another data set of the same source.
The target is the same in data set [6]. This is another data set of the same source.
Data set [7] shares this target. This is another data set of the same source.
For data set [8] the target is unchanged. The source holds these as a separate data set.
In data set [9] the target is human 40S ribosomal subunit with the ybbR tag on uS19, Cy3-labelled (human (endogenous in HEK293T)) (UniProt P62841).
Data set [10] addresses eIF1–40S(biotin) subunit complex (human) (UniProt P41567).
Data set [11] deals with human 80S ribosome assembled on the CrPV IRES from 40S-ybbR-Cy3 and 60S-ybbR-Cy5 subunits (human (endogenous in HEK293T)) (UniProt P62841).
The target of data set [12] is SARS-CoV-2 NSP1 (ybbR-NSP1) WT;human 40S ribosomal subunit;eIF1, eIF1A, eIF5, eIF3 lacking 3j, TC-GMPPNP (eIF2, Met-tRNAi) (SARS-CoV-2;Homo sapiens;Homo sapiens) (UniProt P0DTD1). Description: single-molecule fluorescence (ZMW).
Data set [13] addresses SARS-CoV NSP1;human 40S ribosomal subunit (SARS-CoV;Homo sapiens) (UniProt P0C6X7). Briefly: single-molecule fluorescence (ZMW).
In data set [14] the target is MERS-CoV NSP1;human 40S ribosomal subunit (MERS-CoV;Homo sapiens) (UniProt K9N7C7). Description: single-molecule fluorescence (ZMW).
For data set [15], the system named is Bat-Hp-CoV NSP1;human 40S ribosomal subunit (Bat-Hp-CoV;Homo sapiens). Briefly: single-molecule fluorescence (ZMW).

Chain of UniProt P41567 (P41567 whole entry, looked up, tested part not stated, one chain of several): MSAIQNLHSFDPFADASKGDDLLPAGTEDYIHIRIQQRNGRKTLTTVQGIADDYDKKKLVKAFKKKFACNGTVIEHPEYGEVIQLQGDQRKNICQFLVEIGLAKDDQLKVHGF

As a reminder, the Kd is the concentration at which binding is half-saturated. A higher Kd goes with lower affinity. Turning to “GGCCAGCCCCCUGAUGGGGGCGACACUCCACCAUGAAUCACUCCCCUGUGAGGAACUACUGUCUUCACGCAGAAAGCGUCUAGCCAUGGCGUUAGUAUGAGUGUCGUGCAGCCUCCAGGACCCCCCCUCCCGGGAGAGCCAUAGUGGUCUGCGGAACCGGUGAGUACACCGGAAUUGCCAGGACGACCGGGUCCUUUCUUGGAUAAACCCGCUCAAUGCCUGGAGAUUUGGGCGUGCCCCCGCAAGACUGCUAGCCGAGUAGUGUUGGGUCGCGAAAGGCCUUGUGGUACUGCCUGAUAGGGUGCUUGCGAGUGCCCCGGGAGGUCUCGUAGACCGUGCACCAUGAGCACGAAUCCUAAACCUCAAAGAAAAACCGCCAGAACCAUGGAAGAC [HCV+48]”, in [1], the Kd is over 2000 nM and the binding signal (% 40S events with NSP1) was found to be 60.

“GGUCUCUCUCUCUCUCUCUAUGUUCAAAUAAUCUCUCUCUCUCUCUCUCUCUCUCUCUCUCUC [M+41]”: the binding signal in [2] was 0.0038 s-1 (koff); in data set [3], 4 s-1 (koff). The substance further had a binding signal (% complexes bound) in data set [1] of 16.

As usually defined, the koff is a measure of how fast the partners let go of each other. Low values mean a long-lived complex, high ones a short-lived complex. In the case of “SARS-CoV NSP1 with an N-terminal ybbR tag, Cy3-labelled (from UniProt P0C6X7 1-180) (natural protein)”, in [4], the Kd is under 2 nM, the fraction of IRES–40S complexes bound at least once by NSP1 (≥∼5 s) worked out at 62% and the dissociation rate constant (koff) is under 0.006 s⁻¹.

In general, kon refers to a measure of how fast the partners come together. A high value points to faster complex formation. As for “SARS-CoV-2 NSP1 with an N-terminal ybbR tag, fluorescently labelled (from UniProt P0DTD1 1-180) (natural protein)”, in data set [5], the dissociation constant (Kd) was under 1 nM; the fraction of IRES–40S complexes bound at least once by NSP1 (≥∼5 s) was 77% and 60%; the dissociation rate constant (koff) is under 0.0043 s⁻¹. The substance also registered a kon in data set [6] of 3e+06 to 4e+06 M⁻¹ s⁻¹. In data set [7], this substance yielded a Kd of over 3000 nM and a koff of 0.25 s⁻¹. For the same substance, in [8], the fraction of mRNA–40S complexes bound at least once by NSP1 (≥∼5 s) is 16% and the kobs (apparent association rate) is under 0.002 s⁻¹. Moreover, in data set [9], the time NSP1 remained bound after association is 120 s. In data set [10], this substance returned an equilibrium dissociation constant (Kd) of under 10 nM, an off-rate (koff) of 0.0042 s⁻¹ and a kon of 300000 M⁻¹ s⁻¹. In addition, the fraction of traces with an NSP1 binding event in data set [11] was 30%.

Turning to “GGCCAGCCCCCUGAUGGGGGCGACACUCCACCAUGAAUCACUCCCCUGUGAGGAACUACUGUCUUCACGCAGAAAGCGUCUAGCCAUGGCGUUAGUAUGAGUGUCGUGCAGCCUCCAGGACCCCCCCUCCCGGGAGAGCCAUAGUGGUCUGCGGAACCGGUGAGUACACCGGAAUUGCCAGGACGACCGGGUCCUUUCUUGGAUAAACCCGCUCAAUGCCUGGAGAUUUGGGCGUGCCCCCGCAAGACUGCUAGCCGAGUAGUGUUGGGUCGCGAAAGGCCUUGUGGUACUGCCUGAUAGGGUGCUUGCGAGUGCCCCGGGAGGUCUCGUAGACCGUGCACCAUGAGCACGAAUCCU [HCV+12]”, the binding signal in data set [1] is 0.044 s-1 (kobs); in data set [12] it was 0.013 s-1 (kobs).

Regarding “GGCCAGCCCCCUGAUGGGGGCGACACUCCACCAUGAAUCACUCCCCUGUGAGGAACUACUGUCUUCACGCAGAAAGCGUCUAGCCAUGGCGUUAGUAUGAGUGUCGUGCAGCCUCCAGGACCCCCCCUCCCGGGAGAGCCAUAGUGGUCUGCGGAACCGGUGAGUACACCGGAAUUGCCAGGACGACCGGGUCCUUUCUUGGAUAAACCCGCUCAAUGCCUGGAGAUUUGGGCGUGCCCCCGCAAGACUGCUAGCCGAGUAGUGUUGGGUCGCGAAAGGCCUUGUGGUACUGCCUGAUAGGGUGCUUGCGAGUGCCCCGGGAGGUCUCGUAGACCGUGCACCAUG [HCV+0]”, the figures for the Kd in data set [13], in [1] and in data set [15] were under 2 nM, under 1 nM and under 1 nM, respectively. In [1], the binding signal (% 40S events with NSP1) came out at 57. For the same substance, the binding signal (% complexes bound) in data set [14] turned out to be 11.

In turn, “GGCCAGCCCCCUGAUGGGGGCGACACUCCACCAUGAAUCACUCCCCUGUGAGGAACUACUGUCUUCACGCAGAAAGCGUCUAGCCAUGGCGUUAGUAUGAGUGUCGUGCAGCCUCCAGGACCCCCCCUCCCGGGAGAGCCAUAGUGGUCUGCGGAACCGGUGAGUACACCGGAAUUGCCAGGACGACCGGGUCCUUUCUUGGAUAAACCCGCUCAAUGCCUGGAGAUUUGGGCGUGCCCCCGCAAGACUGCUAGCCGAGUAGUGUUGGGUCGCGAAAGGCCUUGUGGUACUGCCUGAUAGGGUGCUUGCGAGUGCCCCGGGAGGUCUCGUAGACCGUGCACCAUGAGCACG [HCV+6]” came in with a binding signal (% complexes bound) in [1] of 81.
